Experimental data: patent publication US12077566B2, “Mutants of recombinant immunoregulatory protein of Ganoderma lucidum and applications thereof” (priority 2017, dated 2024)
Entries after “also recorded” stand apart in the source; their conditions may differ.

Columns and labels:
[1] = biological target: EGFR extracellular domain (Homo sapiens, UniProt P00533); assay: Affinity test by surface plasmon resonance (Biacore T200, CM5 chip); type: binding; conditions: for Affinity with the EGFR (in words): compared with rLZ-8
Description: The Biacore™ T200 equipment (a Surface Plasmon Resonance from GE Company) is selected. Through the surface plasma resonance technology, the affinity of the rLZ-8 and the mutants thereof to the EGFR extracellular domain is tested. The CM5 chip is adopted to serve as the affinity test chip.
The EGFR extracellular domain (with an amino acid sequence of 25-645) serves as the ligand for coupling; 1 mg EGFR freeze-dried powders are diluted with HEPES buffer solution to a concentration of 400 μg/mL and set aside. Three 1.5 mL EP tubes are prepared; 10 μL ligand are respectively added into the three tubes, then 90 μL 10 mM sodium acetate with different pH values of 4.5, 5.0 and 5.5 are respectively added into the tubes and are mixed completely and uniformly; and a final concentration of the ligand is 40 μg/mL. Moreover, 200 μL 50 mM sodium acetate is added into another 1.5 mL EP tube.
The ligand has a molecular weight of 70 kDa, the analyte (rLZ-8) has a molecular weight of 12.4 kDa. In theory, one rLZ-8 […] can bind with one EGFR, and thus the stoichiometric ratio Sm is equal to 1. Through the following equations, the coupling amount RL of the ligand is calculated.
Through the experimental experience, the optimal reagent coupling amount is set to be 3*RL, and the coupling amount is set to be 1700 RU. The EGFR extracellular domain is successively coupled on the CM5 chip.
In the affinity test, in order to eliminate the influence of different concentrations on the affinity, every of the rLZ-8 and the mutants thereof are tested with eight concentrations, wherein: seven concentrations are gradient concentrations, and the last one is the test reference concentration.

[2] = test system: human liver cancer Hep G2 cells; conditions: for Tumor inhibitory effect (in words): after administration for 28 days; for Mice weight after experiment / Effect on survival time of the mice (in words): mouse, in vivo; for Mice tumor weight after experiment / Survival rate of mice after experiment: qd×28 i.v., rLZ-8 and mutants 0.5 mg/kg, sorafenib 50 mg/kg; for Survival rate of mice after experiment: 10 mice per group
Source text: Two weeks later, the model mice are divided into groups randomly, and each group has 10 mice. The administration method is caudal vein injection, once a day, for consecutive 28 days (qd×28, i.v.). […] During the experiment, if the mouse dies, the dead mouse is weighted on the same day, and the tumor tissue is taken out to be weighted. For the living mouse after administration for 28 days, the mouse is killed, and then the tumor tissue is taken out to be weighted. The death time and death number of the mice in each group are recorded in detail; the survival conditions of the mice of the experimental groups and the control groups are analyzed, and the survival rate is calculated, wherein the survival rate is obtained through subtracting the death number of the mice from the total number of the mice, and then dividing the difference by the total number of the mice.

[3] = test system: human colon cancer SW480 cells; assay: Transplantation tumor model of human colon cancer SW480 cells; type: in vivo, BALB/c nude mice; conditions: after administration for 28 days
Description: The RPMI1640 medium containing 10% fetal bovine serum is selected for the human colon cancer SW480 cells, and then is placed in the CO2 constant-temperature incubator at 37° C. for culturing. The SW480 cells at the logarithmic phase are digested by pancreatin and thereafter washed with serum-free RPMI1640 medium; 2×10^6 cells are inoculated below the back skin of the BALB/c nude mice; after the tumor blocks for observation are formed and have the diameter larger than 0.5 cm, the mice are divided into groups randomly; and the transplantation tumor model of human colon cancer SW480 cells are constructed in the BALB/c nude mice.

[4] = test system: liver cancer, lung cancer, breast cancer and colon cancer; assay: Animal pharmacodynamic experiments of liver, lung, breast and colon cancer (summary statement); type: in vivo, mice; conditions: breast and colon cancer models together
Hep G2 cytomembrane = assay: In vitro cellular activity: binding with Hep G2 cytomembrane and entering the cell; type: cell-based; conditions: 100 μg/mL
[5] = test system: human lung cancer A549 cells; assay: Orthotopic transplantation tumor model of human lung cancer A549 cells; conditions: for Mice survival rate after experiment / Mice tumor weight after experiment / Mice weight after experiment / Tumor inhibitory effect (in words): after administration for 28 days; for Effect on survival time (in words): compared with the rLZ-8;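 on all read-outs here: test animals were NOG mice aged 6-8 weeks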
Description: The human lung cancer A549 cell strain is selected. The NOG Mice of 6-8 weeks old are selected.
The DMEM containing 10% fetal bovine serum is selected for the human lung cancer A549 cells, and then is placed in the CO2 constant-temperature incubator at 37° C. for culturing. The A549 cells at the logarithmic phase are digested by pancreatin and thereafter washed with serum-free DMEM; the living cell concentration is adjusted to 1×10^8 cells per milliliter; 20 μL cell suspension is taken and inoculated at the lung of the NOG mice; two weeks later, the orthotopic transplantation tumor model of A549 lung cancer cells is constructed in the NOG mice.

[6] = test system: human breast cancer MCF7 cells; assay: Orthotopic transplantation tumor model of human breast cancer MCF7 cells; type: in vivo, BALB/c nude mice; conditions: after administration for 28 days
Description: One day before the experiment, 0.5 mg of 17ß estradiol sustained release tablet is embedded below the neck skin of the BALB/c nude mice.

tumor = assay: Early animal pharmacodynamic experiments of PEG-modified rLZ-8; type: in vivo; conditions: compared with rLZ-8
[7] = EGFR extracellular domain coupled on CM5 chip, analyte 4-256 nM

| Molecule | Ka [1, 7] [M⁻¹ s⁻¹] | Affinity with the EGFR (in words) [1] | Tumor inhibitory effect (in words) [2] | Mice weight after experiment [2] [g] | Mice tumor weight after experiment [2] [g] | Survival rate of mice after experiment [2] [%] | Mice tumor weight after experiment [3] [g] | Tumor inhibitory effect (in words) [3] | Tumor inhibitory effect (in words) [4] | Mice survival rate after experiment [5] [%] | Mice tumor weight after experiment [5] [g] | Mice weight after experiment [5] [g] | Tumor inhibitory effect (in words) [5] | Mice tumor weight after experiment [6] [g] | Tumor inhibitory effect (in words) [6] | Effect on survival time of the mice (in words) [2] | Effect on survival time (in words) [5] | also measured |
| --- | --- | --- | --- | --- | --- | --- | --- | --- | --- | --- | --- | --- | --- | --- | --- | --- | --- | --- |
| rLZ-8 (K16A/S18A/K41A/D45A): alanine mutant of rLZ-8 at K16, S18, K41 and D45 (protein) MSDTALIFRLAWDVKALAFDYTPNWGRGNPNNFIDTVTFPAVLTAKAYTYRVAVSGRNLGVKPSYAVESDGSQKVNFLEYNSGYGIADTNTIQVFVVDPDTNNDFIIAQWN | 139 | obviously decreased by 2-3 orders of magnitudes | nearly no tumor inhibitory effect | 17.3 ± 1.5 | 1.62 ± 0.72 | 30 | 3.12 ± 0.54 | nearly no tumor inhibitory effect | nearly no tumor inhibitory effect | 10 | 1.22 ± 0.83 | 17.6 ± 1.4 | nearly no tumor inhibitory effect | 1.02 ± 0.33 | nearly no tumor inhibitory effect |  |  | Dissociation rate constant (koff) [1, 7]: 0.00423 s⁻¹; Affinity with the EGFR (in words) ([1]; listed as rLZ-8 (K16A/S18A/K41 A/D45A)): obviously decreased affinity; Binding with the Hep G2 cytomembrane and entering the cell (in words) (Hep G2 cytomembrane): little binding amount with the Hep G2 cytomembrane and nearly cannot be observed to enter the cell |
| rLZ-8 (D70K): rLZ-8 mutant after surface potential optimization, D70K (protein) MSDTALIFRLAWDVKKLSFDYTPNWGRGNPNNFIDTVTFPKVLTDKAYTYRVAVSGRNLGVKPSYAVESKGSQKVNFLEYNSGYGIADTNTIQVFVVDPDTNNDFIIAQWN | 203000 |  | obviously increased tumor inhibitory effects | 20.7 ± 1.7 | 0.35 ± 0.21 | 80 | 1.22 ± 0.29 | obviously increased tumor inhibitory effect | obviously increased tumor inhibitory effects | 80 | 0.36 ± 0.28 | 21.1 ± 1.2 | obviously increased tumor inhibitory effect | 0.52 ± 0.28 | obviously increased tumor inhibitory effect | certain effect on lengthening the survival time | can obviously lengthen the survival time |  |
| rLZ-8 (D45A): alanine mutant of rLZ-8 at D45 (protein) MSDTALIFRLAWDVKKLSFDYTPNWGRGNPNNFIDTVTFPKVLTAKAYTYRVAVSGRNLGVKPSYAVESDGSQKVNFLEYNSGYGIADTNTIQVFVVDPDTNNDFIIAQWN | 1200 | obviously decreased by 2-3 orders of magnitudes; also recorded: obviously decreased affinity | nearly no tumor inhibitory effect | 17.4 ± 1.6 | 1.44 ± 0.80 | 50 | 3.26 ± 0.56 | nearly no tumor inhibitory effect | nearly no tumor inhibitory effect | 30 | 1.28 ± 0.68 | 17.5 ± 1.5 | nearly no tumor inhibitory effect | 1.08 ± 0.28 | nearly no tumor inhibitory effect |  |  |  |
| rLZ-8 (S18A): alanine mutant of rLZ-8 at S18 (protein) MSDTALIFRLAWDVKKLAFDYTPNWGRGNPNNFIDTVTFPKVLTDKAYTYRVAVSGRNLGVKPSYAVESDGSQKVNFLEYNSGYGIADTNTIQVFVVDPDTNNDFIIAQWN | 3720 | obviously decreased by 2-3 orders of magnitudes; also recorded: obviously decreased affinity | nearly no tumor inhibitory effect | 17.6 ± 1.4 | 1.50 ± 0.71 | 30 | 3.01 ± 0.39 | nearly no tumor inhibitory effect | nearly no tumor inhibitory effect | 30 | 1.20 ± 0.70 | 17.8 ± 1.6 | nearly no tumor inhibitory effect | 1.04 ± 0.30 | nearly no tumor inhibitory effect |  |  |  |
| rLZ-8 (L17K/D70K): rLZ-8 mutant after surface potential optimization, L17K and D70K (protein) MSDTALIFRLAWDVKKKSFDYTPNWGRGNPNNFIDTVTFPKVLTDKAYTYRVAVSGRNLGVKPSYAVESKGSQKVNFLEYNSGYGIADTNTIQVFVVDPDTNNDFIIAQWN | 215000 |  | obviously increased tumor inhibitory effects | 21.0 ± 1.8 | 0.42 ± 0.23 | 90 | 1.09 ± 0.33 | obviously increased tumor inhibitory effect | obviously increased tumor inhibitory effects | 80 | 0.40 ± 0.26 | 21.2 ± 1.5 | obviously increased tumor inhibitory effect | 0.49 ± 0.26 | obviously increased tumor inhibitory effect | certain effect on lengthening the survival time | can obviously lengthen the survival time |  |
| mPEG-SPA-rLZ-8: rLZ-8 modified with methoxy polyethylene glycol succinimidyl propionate (conjugate, UniProt P14945 2-111, looked up, mPEG-SPA PEGylation, rLZ-8 modified with methoxy polyethylene glycol succinimidyl propionate) Immunomodulatory protein Ling …: SDTALIFRLAWDVKKLSFDYTPNWGRGNPNNFIDTVTFPKVLTDKAYTYRVAVSGRNLGVKPSYAVESDGSQKVNFLEYNSGYGIADTNTIQVFVVDPDTNNDFIIAQWN |  |  |  |  |  |  |  |  |  |  |  |  |  |  |  |  |  | Antitumor effect (in words) (tumor): decreased |
